Data taken from the supplement of paper PMC10567573.
± gives the standard deviation.

Assay: protein stability index of a GFP-peptide fusion (GPS, HEK-293T) (PSI 1-6); higher = more stable
Conditions: c terminus: a fixed tail appended
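Further: 24-mer peptide tiles fused after GFP, lentivirally expressed, FACS-sorted into six equal bins by GFP/DsRed ratio, decoded by Illumina sequencing, PSI is the read-weighted mean bin number.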

Row | Sequence | protein stability index (treatment: DMSO) | protein stability index (treatment: MLN4924 1 uM, 8 h)
1 | PSRGHAYRDYGHSRRDESYSRGYR [RBMY1A1] | 4.42 ± 0.13 | 4.34 ± 0.26
2 | LEKPPAPNQAMVVAAAGDACPPQH [TBC1D10A] | 5.21 ± 0.21 | 5.2 ± 0.33
3 | RGELSARQMHLARFLRMLLRLADE [RAD51] | 2.2 ± 0.27 | 2.42 ± 0.4
4 | RRRGSDPASGEVEASQLRRLNIKK [TMEM40] | 5.26 ± 0.23 | 5.02 ± 0.24
5 | ACGDAFTVAIGAESEVYSWGKGAR [NEK8] | 2.84 ± 0.23 | 2.77 ± 0.3
6 | RPPLRRVRMSADAMLKALLGSKHK [TNNI2] | 3.01 ± 0.28 | 3.21 ± 0.29
7 | ETELALVKESGERKVTDSISKSLE [DLC1] | 5.56 ± 0.35 | 5.13 ± 0.44
8 | CRSKTLGYQHVDLQNFSSSWSDGM [SMTNL2] | 2.47 ± 0.079 | 2.41 ± 0.27
9 | HIGHVGWDPNTGFDLNNLDPELKN [WASL] | 4.42 ± 0.24 | 4.47 ± 0.32
10 | FPNIASATKFKQLYRSRMNSLEMT [HMOX1] | 2.37 ± 0.16 | 2.62 ± 0.23
11 | NNQITCRNGQWSEPPKCLDPCVIS [CFHR2] | 3.34 ± 0.2 | 3.32 ± 0.25
12 | NSLAALDLSGIQTSDAAFLTQWKD [ZER1] | 4.25 ± 0.2 | 4.29 ± 0.23
13 | SSAGGAKAGQPESRALALFDIQKI [ZNF8] | 3.99 ± 0.52 | 4.26 ± 0.26
14 | YCRLKKCLKVGMRREAVQRGRMPP [NR2F2] | 2.84 ± 0.39 | 2.77 ± 0.26
15 | LSLQDQVDTLTFQSQSLRDRARRF [MTUS2] | 3.91 ± 0.26 | 3.84 ± 0.18
